This is an account of results in the supplement of paper PMC10126150.

For this data set, the system named is ATP. Nature of the data set: switch fluorescence ratio, 500 uM ATP over buffer (Cy3 cluster intensity, sum of 5 cycles each) (fold (ratio)); higher = stronger signal-on switching upon ATP binding; sequences stand for … in TCGTCGGCAGCGTCAGATGTGTATAAGAGACAGTTTTTTTTTTTTTTTTTTTTTTTTT…TC. Conditions: aptamer strand: ATP DNA aptamer (quencher-CACCTGGGGGAGTATTGCGGAGGAAGG + anchor), 100 nM annealed; ATP concentration: 500 uM. A digest of the protocol:
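Imaging in selection buffer was followed by imaging after 15 min with 500 uM ATP at 22 °C, for Cy3-labelled switching-strand clusters annealed to 100 nM quencher-labelled ATP aptamer on a modified Illumina MiSeq flow-cell. Five of these buffer/ATP cycles ran, separated by NaOH stripping and re-annealing. The fluorescence ratio per cluster is summed target-cycle over summed buffer-cycle Cy3 intensity, averaged per switch-domain sequence; clusters outside 100-1000 RFU were removed.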

± gives the standard deviation of the averaged measurements.
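Also: ATP exposure 15 min at 22 °C before imaging.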

TTTATGTCGC: the switch fluorescence ratio was found to be 1.01 ± 0.054.
For TTTATGTCGT, the switch fluorescence ratio was 0.986 ± 0.038.
For TTTATTACGC, the switch fluorescence ratio stood at 0.999 ± 0.053.
In the case of TTTATTAGTA, the switch fluorescence ratio is 0.983 ± 0.024.
For TTTATTCAGG, the switch fluorescence ratio was determined as 1.02 ± 0.032.
In the case of TTTATTCCGT, the switch fluorescence ratio was 0.999 ± 0.037.
On to TTTATTGACG, for which the switch fluorescence ratio is 0.886 ± 0.012.
As to TTTATTGATG, the switch fluorescence ratio was determined as 0.997 ± 0.016.
Take TTTATTGGTT: the switch fluorescence ratio is 1.07 ± 0.1.
The value for TTTATTTGGA was 1.018 ± 0.0012.
With TTTATTTTCG, the switch fluorescence ratio was 1.02 ± 0.037.
The value for TTTATTTTCT was 0.991 ± 0.015; that for TTTCAAAGGG was 0.994 ± 0.015; that for TTTCAAATCA was 1.01 ± 0.037.
In the case of TTTCAAGAGT, the switch fluorescence ratio came to 1.03 ± 0.034.
Take TTTCAAGCAT: the switch fluorescence ratio turned out to be 1.02 ± 0.017.
For TTTCAAGGGT, the switch fluorescence ratio is 0.9851 ± 0.0031.
As to TTTCAATCAT, the switch fluorescence ratio amounted to 0.983 ± 0.038.
On to TTTCAATTTT, for which the switch fluorescence ratio was found to be 0.996 ± 0.026.
Consider TTTCACACGT, for which the switch fluorescence ratio is 1.02 ± 0.024.
Consider TTTCACAGCT, for which the switch fluorescence ratio amounted to 1.03 ± 0.041.
For TTTCAGGACT, the switch fluorescence ratio came out at 0.996 ± 0.041.
On to TTTCAGGGAA, for which the switch fluorescence ratio was found to be 0.99 ± 0.054.
As for TTTCAGGGAG, the switch fluorescence ratio is 1.04 ± 0.056.
With TTTCAGGTGG, the switch fluorescence ratio was found to be 1.02 ± 0.015.
As for TTTCAGTATG, the switch fluorescence ratio worked out at 1.02 ± 0.023.
Turning to TTTCAGTTCT, the switch fluorescence ratio is 0.9773 ± 0.005.
The value for TTTCATCCCC was 1.07 ± 0.034; that for TTTCCACAGG was 1.396 ± 0.0082; that for TTTCCAGTTC was 1.37 ± 0.57.
As for TTTCCCAAAA, the switch fluorescence ratio was 1.04 ± 0.08.
As to TTTCCCAATT, the switch fluorescence ratio was determined as 1.16 ± 0.16.
Regarding TTTCCCGCTC, the switch fluorescence ratio was 1.93 ± 0.33.
For the sequence TTTCCGATTT, the switch fluorescence ratio stood at 0.9886 ± 0.0024.
Take TTTCCGGATT: the switch fluorescence ratio was 1.02 ± 0.059.
With TTTCCGTTAT, the switch fluorescence ratio worked out at 2.41 ± 1.9.
As for TTTCCGTTGA, the switch fluorescence ratio amounted to 1.23 ± 0.32.
As to TTTCCGTTTG, the switch fluorescence ratio amounted to 1.16 ± 0.32.
The value for TTTCCTCTGG was 1.95 ± 1.4; that for TTTCCTGGGG was 1.04 ± 0.039.
The value for TTTCCTGTAT was 0.972 ± 0.046.
On to TTTCCTTTGG, for which the switch fluorescence ratio is 1.01 ± 0.032.
Turning to TTTCGAAAGG, the switch fluorescence ratio was 0.983 ± 0.043.
For the sequence TTTCGAAGGG, the switch fluorescence ratio worked out at 1.04 ± 0.07.
With TTTCGAGAAG, the switch fluorescence ratio was 1.05 ± 0.054.
With TTTCGAGGAC the figure was 0.983 ± 0.011; with TTTCGATGTT, 0.95 ± 0.051; with TTTCGATTTT, 0.993 ± 0.04.
As for TTTCGCCATT, the switch fluorescence ratio was determined as 1.3 ± 0.46.
With TTTCGGAATT the figure was 1.35 ± 0.48.
With TTTCGGCTTT the figure was 1.24 ± 0.3; with TTTCGGGACT, 1.03 ± 0.048; with TTTCGGGGCA, 1.02 ± 0.034.
On to TTTCGGGGTG, for which the switch fluorescence ratio turned out to be 1.09 ± 0.17.
With TTTCGGGTAT, the switch fluorescence ratio turned out to be 1.05 ± 0.011.
TTTCGGGTTG: the switch fluorescence ratio turned out to be 1.02 ± 0.042.
For TTTCGGGTTT, the switch fluorescence ratio came out at 0.989 ± 0.028.
As for TTTCGGTAAA, the switch fluorescence ratio amounted to 1.026 ± 0.0039.
Consider TTTCGGTGTT, for which the switch fluorescence ratio was found to be 0.981 ± 0.041.
As to TTTCGGTTCT, the switch fluorescence ratio was found to be 0.991 ± 0.012.
For the sequence TTTCGGTTGG, the switch fluorescence ratio was determined as 0.999 ± 0.032.
The value for TTTCGGTTGT was 1 ± 0.022.
In the case of TTTCGTACGG, the switch fluorescence ratio was determined as 1.03 ± 0.087.
In the case of TTTCGTATTG, the switch fluorescence ratio stood at 0.991 ± 0.02.
With TTTCGTCAGG, the switch fluorescence ratio was 0.997 ± 0.038.
With TTTCGTCATG, the switch fluorescence ratio is 1.03 ± 0.065.
For TTTCGTGCTT, the switch fluorescence ratio amounted to 1.02 ± 0.032.
Consider TTTCGTGGCA, for which the switch fluorescence ratio was determined as 1.02 ± 0.066.
For the sequence TTTCGTGGTC, the switch fluorescence ratio was 1.02 ± 0.015.
Regarding TTTCGTGTAG, the switch fluorescence ratio was 1 ± 0.032.
As to TTTCGTTCGC, the switch fluorescence ratio is 1.302 ± 0.013.
TTTCGTTGTA: the switch fluorescence ratio came to 0.973 ± 0.001.
As for TTTCTAACTC, the switch fluorescence ratio was found to be 1 ± 0.053.
For TTTCTACTCG, the switch fluorescence ratio turned out to be 0.995 ± 0.017.
TTTCTAGTGG: the switch fluorescence ratio stood at 0.999 ± 0.03.
With TTTCTATACG the figure was 1.02 ± 0.031.
With TTTCTATATA the figure was 1 ± 0.052.
As to TTTCTCGTAA, the switch fluorescence ratio was determined as 1.58 ± 0.55.
TTTCTGATTT: the switch fluorescence ratio stood at 0.983 ± 0.022.
For the sequence TTTCTGCAGC, the switch fluorescence ratio is 1.24 ± 0.14.
Turning to TTTCTGGCTT, the switch fluorescence ratio came out at 1.02 ± 0.051.
As to TTTCTGGTT, the switch fluorescence ratio amounted to 1.01 ± 0.038.
The value for TTTCTTAGTG was 0.9622 ± 0.0086; that for TTTCTTGGGA was 1 ± 0.059; that for TTTCTTTAGT was 1 ± 0.04.
Consider TTTCTTTCAA, for which the switch fluorescence ratio amounted to 1.01 ± 0.021.
The value for TTTCTTTGAT was 0.998 ± 0.029; that for TTTCTTTGCA was 1.058 ± 0.0081; that for TTTCTTTTGG was 1.1 ± 0.09.
With TTTGAA the figure was 0.9556 ± 0.0024; with TTTGAAAAGG, 1.01 ± 0.039.
In the case of TTTGAACTGT, the switch fluorescence ratio came out at 1.18 ± 0.14.
Turning to TTTGAACTTG, the switch fluorescence ratio stood at 1.01 ± 0.024.
With TTTGAAGGTA, the switch fluorescence ratio was 1.01 ± 0.025.
As to TTTGAATGGG, the switch fluorescence ratio came out at 0.985 ± 0.029.
With TTTGACATGG the figure was 0.955 ± 0.029; with TTTGACGCAT, 1.6 ± 0.67.
On to TTTGACGGGC, for which the switch fluorescence ratio is 1.05 ± 0.032.
The value for TTTGACTTTC was 1.07 ± 0.025.
The value for TTTGAGAATC was 0.977 ± 0.017; that for TTTGAGAGCT was 0.977 ± 0.014; that for TTTGAGAGTT was 1.03 ± 0.058.
For TTTGAGCAGA, the switch fluorescence ratio stood at 0.97 ± 0.02.
For the sequence TTTGAGCTGT, the switch fluorescence ratio was determined as 1.02 ± 0.042.
Turning to TTTGAGGCCT, the switch fluorescence ratio stood at 0.99 ± 0.025.
With TTTGAGGGTG the figure was 1.07 ± 0.065.
As to TTTGAGGGTT, the switch fluorescence ratio was 0.983 ± 0.026.
Consider TTTGAGGTCG, for which the switch fluorescence ratio worked out at 1.06 ± 0.063.
On to TTTGAGGTCT, for which the switch fluorescence ratio came out at 1.05 ± 0.072.
Regarding TTTGAGTGGC, the switch fluorescence ratio was found to be 0.969 ± 0.041.
With TTTGAGTGGT the figure was 0.993 ± 0.013.
As for TTTGAGTGTG, the switch fluorescence ratio came to 0.997 ± 0.03.
With TTTGAGTGTT, the switch fluorescence ratio was 0.985 ± 0.011.
The value for TTTGAGTTTT was 0.989 ± 0.034; that for TTTGATAAAA was 0.972 ± 0.039; that for TTTGATATAA was 0.991 ± 0.031.
TTTGATCACG: the switch fluorescence ratio came out at 1.02 ± 0.031.
With TTTGATCGGG, the switch fluorescence ratio was 0.978 ± 0.015.
In the case of TTTGATGGGT, the switch fluorescence ratio is 0.993 ± 0.048.
TTTGATGGTT: the switch fluorescence ratio was determined as 1.01 ± 0.011.
